Assay: soluble on expression in E. coli; label from the status in PepcDB or PDB records

Sequence | soluble on expression in E. coli
MKILTQSLPNSSAAYLQGYLRENTDSSVTYPTVIIVPGGSYTHIPERQAEDLALAWVARGYQAFFLRYSFISEKTPLLPNPVIELAQSVAAIHAHATTWHVDLRRLAVAGFSVGGHITALFNDWWSEADFNQQAHTTPEQLKVQAVILGYPVISPDLGFPTDAATLATWSTTPKKIAADQHVTAANAPTFIWVTANDPLVPVQNALAYAQASLTHGVDTELHVFHNGPHGLALANSVTAWKPGTDLPHVAHWLDLATEWLQDLKLEHHHHHH | soluble
AGQKVMITKMITDSVANPQMKQAFEQRLAKASTEDALNDIKRDIIRSAI | soluble
MANVAFGFQEAVFTLESMVANIERQAQTIEKLINENKQLRQENQQLKARIAELEARTKKNSTNSHFPPSSDRFGAKSPSRPPSEKRPGGQPGHQGTTLRQSPNPDHRVLHRVTQCKGCGHSLEHIDPLQVDIRQVFDLPVVRMEVTQHEREIKRCPECRLVQQAEFPFYVTNHVQYGPAVTSLILYWNHAQLIPCERVTEMVKALTGHSMSAGTVVNMTRRWQPVAEAAIEEIEAALLTSSTLHVDETSLRVKGTKQWVHVASTSKETRYGIHRSRGKQATDDIGILPRYKGTMVHDAYAVYPMYTQASHALCHAHHLRELREYTELYHHSWSNKMAEALLEMKQAVEKAGGALPEEKVRYWEAVYDELLSNGRQELDERCRQGNYLGVRKAEHFIRRLEKRKQEALLFLRKKEVPFDNNQAERDLRMVKVKQKISGTFRQEDDAEAFCVIRSVVSTLQKHGKPVWESLQRLLSGESLQTILQSS | not soluble
MSEEVGAKRWYAVHTYSGYENKVKKNLEKRVESMNMTEQIFRVVIPEEEETQVKDGKAKTTVKKTFPGYVLVELIMTDESWYVVRNTPGVTGFVGSAGAGSKPNPLLPEEVRFILKQMGLKEKTIDVELEVGEQVRIKSGPFANQVGEVQEIETDKFKLTVLVDMFGRETPVEVEFDQIEKL | not soluble
MGSDKIHHHHHHMTLFLQKGYEETTMREIVHKSGRSKGAIYHHFSSKQEILNFQISLEMDNLRQCLDALISNNQLNAQQKFKGILTYFFENPSLTELTRLHWAEKLPFALLETLKNSLTVVAQYIEAIIQQEIKEKKLNCQYSKELSEILVLLFDIWLDPSIVDFDYQTACQRIDFIALLLEKFDLPLLDENDKNKLKNGLKHYDEKNTL | not soluble
MNYGFNFLHNTIIMMIIRSIIFRNFLFSISQLSQLNNVNTCSIIFHSLFTHFQITSHFTQMAAASSAPHQMQVRVTFYTSHNPQSVLMILKNDQALQQISEKARELFPSADYRLYYGDVNGPIFEFTNSDQIMSKIRITTFSRTPQLFVRLETVPLRPTALPSVSTETAKKASDADRESKSRSSLKRIENNQELTLKTLEKLQKELSRVSALETMVADLHAKEREPVVEEVQKPFPPVKHSASCDACLGDIIGHRFKCLECADYDLCEKCERKSLHYEHAMIRIVEPKKTMIPSYVTSNSPNNVFPTYMQHKIQQPQTIKGINKTVITRLVPSHQVNPAPMPQAPPVSTPVPFPPSPTIGNGAVPKPAQEPRIPPSPTSALPPPQFFNEETRAAIINSAALLKETFSTLSRSFLDLADGAQANMDKKIIERSTMEAGMTKFEEKMDNLKRHCEEKYLGTETAEAEKSEESSKKQADSLSGPKIKKAKKKSCYKKSAERLFTMQLAAAAAEQARLEQEAKKRAEASSAELQRKLAELNVKESQSKSEENIADFVLYDLYGNSLEALLRGRSSSRIADPPTTPNTEPATTELASTTSATPAVTAPASIVPVTPTAPIVETLIVPPLPPVESNPEEVTPMVTAPISIHSSFENISSDFESLSPSWGGYPDLEAAQRLEVIDDNLLDFSDVAVEAQEAQEAQEEARPEPEQSLPPFNEETEKTFDRLLEMGFSYNVTVAAIRANGSNLEMCLQALLH | not soluble
NLNSIQNFGAIDILCTDKTGTLTQDKVVLEYHLNVNGEDDTRVLRHAYLNSYFQTGYKNLMDLAIIHKTEEEEAADSRLIDLSENYVKVDEIPFDFTRRRLTTVVQDNKGKTQMVTKGAVEEMLSICAFAECNGGVQPLTDDVRYRILETVDNLNDKGFRVLAIAQKSNPSPIGAFGVKDECDMVLIGYLAFLDP | not soluble
MSLSSEQQAMIDYVLAGKDVIVDATVGSGKTTAIQRLCSIMGADHDVLYLTYSKLLKVDAQQRVRGAKVQNYHGIVYPHLLKAGIKCGISESIREFNKNFKHISRTFPSYDLLVIDEYQDINEDYAELLRNIKSVNPLMQIVMVGDLEQKVRSDTTLDPQEFAAQLCEDPVFAPFTQSFRIGEAMAAGLADAWNKPIVGANTAQQIEYRSFAEAVVLIQSTEPSKLLCLGSRNGQMSDALNVVERKSPAKFNKKTVFASIRDGDSQIAHPNDAAVFTTFDSSKGLERDTCVVFDYDEEFWDMRLGYPNVDPVVMRNVFLVAASRGKNKVVFVRSDSLQAAYEAGADWAAGLAVGVVDNNTEVAPEVDAHTPAEESKGDVGEVQSQIERMMGFIPVSVFKELPELAPSEYARPISVTEAFDFKYAENVEACFDLLDVKRLDNGKGAAIEVNRSDGLIDLSPTVGNFQEAVFFKDYNVHTALSAYPSQFAKNLKRLVKKNNSVWRNCLIVTAASTEQMRYVDQVRSSIPVAAEKALVSRLSTRLNADSRNQIPLILDGEAVQSKVVRTPMSFAGVADAVHKGVLYELKFVSELTHPMFLQLAMYLVMSGMKDGILWNTRTDEAWQVRVPDPKRFLNAVVLCVSKQDYRVGNFDLPSTGGEGHHHHHH | not soluble
FPSTYLSHRQETIGQKATAIAQSLEGKDRQSIEQVLDLYSQTSDIKGTVKGEMTEDKLEVKDSLPLDTDRQTTSLFIEEREVKTQDGGTMILQFLASMDLQKEAEQ | not soluble
MAFAKDLKRRNVLQEAVYHRIKADFDLGAQAAVRTVKKVCDAYATFKANLRAGNYGLEGSKRRIKAESKPVRFRETSAQPFDDRMLTWNLDTKMVSVWTVAGRLKGIPFVCSPEAMRLLAQRKGESDLVMRDGMFFLLATIDIPEPEVSGPDGFLGVDLGIVNIATTSDGRIMSSRQVNRYRQRKRDLRGKLQKKRTKSAARVLKRQRRKEARYATQRNHIIARKLVHTAERTSRGIGLEDLTGIRQRVTAREDQRARLHSWAFAQLGAFVEYKAKRAGVAVVHVDPRNTSRQCSECWHTHRTNRVTRARFVCRSCGIVLHADHNGSRNIAHRADAAWQRGAANRPRTPAAALEHHHHHH | not soluble
SSRFSITYKHDFYGGVEGEVTGGSALLCCPQEDIKSFLSEPVYSRLCASAWALTIECPSDPRTPSGTPGPLGTVPWRWGSLGMGGPLLPTAPTPRERERRGGQPAQRWSAEEGQEGSADGEAEATQELILAVVQEGAEGQCQGQGRKLLLQRGAHDPVTVHRAFKKEVGLGQVQLIPKGGTGVLHPGAGLKLHTHLQLVTGFVVIRRMHACLAQRYCSQPVVQCVFPS | soluble
MADEERLKEFKEANKIVFDPNTRQVWENQNRDGTKPATTFQSEEDIKRAAPESEKDTSATSGIVPTLQNIVATVTLGCRLDLKTVALHARNAEYNPKRFAAVIMRIREPKTTALIFASGKMVVTGAKSEDDSKLASRKYARIIQKIGFAAKFTDFKIQNIVGSCDVKFPIRLEGLAFSHGTFSSYEPELFPGLIYRMVKPKIVLLIFVSGKIVLTGAKQREEIYQAFEAIYPVLSEFRKM | soluble
MPTPFDVTILGGGLAGRLCAWQLAQTGVPPARIAVVERGARDGSGSAAYVAAAMLAPLAEAAVADRFVVELGLASLTLWRDWLPMLRTPVFFQQAGTLVVWHPADRGEASLFANHVRAATPPERIAADLRAVDAEGIGTLEPALAQRFSQGLYLAGEGQLDNRAVLDALATELEALGVQLRWNTAVADPHPQALAAAGLGARLVLDCRGLGAQPQWPQLRGLRGEVARIHAPDVTLTRPVRMLHPRYPIYIAPKPGHVYVIGATEIESDDMSPVSVRSTLELLSAAYAVHPAFGEARVLELCTQCRPTLPDHRPAIRWDGAGTLSVNGLYRHGYMIAPAVAQAAVAAAHALLDGRAIDAPASAWPGLFAAPASPEPVLPLEHHHHHH | soluble
MSLEPATAPRPDMAPELTPEEEQATKQFLEEINKWTVQYNVSPLSWNVAVKFLMARKFDVLRAVELFHCYRETRRKEGIVKLKPHEEPLRSEILSGKFTILNVRDPTGASIALFTARLHHPHKSAQHVVLQALFYLLDRAVDSFETQRNGLVFIYDMCGSNYANFELDLGKKVLNLLKGAFPARLKKVLIVGAPIWFRVPYSIISLLLKDKVRERIQILKTSEVTQHLPRECLPENLGGYVKIDLATWNFQFLPQVNGHPDPFDEIILSSLPPAEGHHHHHH | soluble
MHEFSIVQSLLTLIEDYARENNAKSVTKVVVSIGVLSGVEPHLLEMAFNTFKEGTVAEKAELIMEIEKLKIKCMDCGKESEKEELNMLCPGCGSLNTQIISGQDMFLKSLELEVD | soluble
MSDGHHNGHEHVPSRQRRRFPGISSRAYEHPADRSALVALRKLSGFDTVFKALSGLLPERSLRLLFLSDSVRVSDRQFAHLNVMLRDACYILDLEKVPPMYVNQDPVPNAMCIGLDEPIIVVTTGLVELLDEEEMRAVVGHEVGHALSGHAVYRTILLFLTSLAVRVAWIPLGNVAIMAIVTALREWFRKSELSADRAGLLVGQDLQASMRGLMKIAGGNHLHEMNVDAFLEQAEEYEAGGDLRDSVLKILNVLPRSHPFTTVRAAELKKWAASRDYQRIMDGHYPRRDEDRNTSVRDSFRESASHYATHVRSSKDPLMKLVNDIAGGAGDLGDRMRRGFGGFTGSQPRPPEDDGGPAQGPGGSGRPDGPDRPEGPEGSGGSEEPGGDGPESPRDGSPRDGALEHHHHHH | not soluble
KAAPEDVRMIMIDPKMLELSIYEGIPHLLAPVVTDMKLAANALNWCVNEMEKRYRLMSFMGVRNLAGFNQKIAEAAARGEKIGNPFSLTPDDPEPLEKLPFIVVVVDEFADLMMTAGKKIEELIARLAQKARAAGIHLILATQRPSVDVITGLIKANIPTRIAFQVSSKIDSRTILDQMGAENLLGQGDMLFLLPGTAYPQRVHGAFASDEEVHRVVEYLKQFGEPDYVDDILSGGGSEELPGIGRSGDDETDPMYDEAVSVVLKTRKASISGVQRALRIGYNRAARLIDQMEAEGIVSAPEHNGNRTILVPLDNA | not soluble
MGSDKIHHHHHHMSDAHYDMHKRNGYSSDEPYPEIKVLGPNKYYAELLMDDYAGVSSEFTSVNQYLYHNFDLDETHRELSEMWINISITEMLHMEILAKTIRLLGGNPVYRGSTSSCGAYWNGGFVCYGNSICNRLKLDLHLEHVAINNYYKDISLIEDPYIKAILNRIILDEKLHVSLFEKAIEKYCK | not soluble
MGSDKIHHHHHHMSTQTSIEWTEMTWNPIVGCTKVSPGCKHCYAENMAHRLQAMGTPGYENGFKLSLRPEKLREPLQRKKPTIYFVNSMSDLFHEKVPDHYIDQVFEVIREATQHTFQILTKRAERLADYFSKRTPPTNAWLGVSVEDKAYGVPRIDCLRRVNATIRFLSAEPLLEDLGEIDLTDIHWVIVGGESGNKARPMQQEWVDNIHRQCDVSGSAFFFKQWGGWGADGVKRSKKANGRLLNGQTWDEIPLLNLA | not soluble
MGSDKIHHHHHHMTQYIYLHGFASSPQSAKAQDIRQRFAQIHTQLTIPDLNAGEFSQLTITRQIQQIAATFPDDSVPITLIGSSLGGLTAAHLGQRYLQVQRLVLLAPAFGFLSHWLPKMGEGAVQSWQQNGYYPVYHYGEGTSLPLSYNFVTDAAQYQEDHIQRPIPTLILHGKHDEVIPITASRDFAHSRPWVELIELDSNHALGNVMEEIWQAISLFCQLPESGKI | not soluble
MQLASRFGHVNQIRRDRPLTREELMQVVPSVFGEDKHTSRSENYTWIPTITVLESLQREGFQPFFACQTRVRDPGRRGYTKHMLRLRRDGEINGQHVPEIILLNSHDGTSSYQMLPGYFRFVCQNGCVCGQSLGEVRVPHRGNVVEKVIEGAYEVVGVFDRIEEKRDAMQSLVLPPLARQALAQAALTYRYGDEHQPVTTADILTPRRREDYGKDLWSAYQTIQENMLKGGISGRSAKGKRIHTRAIHSIDTDIKLNRALWVMTETLLENMR | not soluble

— the DeepSol protein solubility set
